Source: IntAct's records for PubMed 18275819

Target: cac1c_human CACNA1C (UniProt Q13936)
Sequence (Q13936 whole entry): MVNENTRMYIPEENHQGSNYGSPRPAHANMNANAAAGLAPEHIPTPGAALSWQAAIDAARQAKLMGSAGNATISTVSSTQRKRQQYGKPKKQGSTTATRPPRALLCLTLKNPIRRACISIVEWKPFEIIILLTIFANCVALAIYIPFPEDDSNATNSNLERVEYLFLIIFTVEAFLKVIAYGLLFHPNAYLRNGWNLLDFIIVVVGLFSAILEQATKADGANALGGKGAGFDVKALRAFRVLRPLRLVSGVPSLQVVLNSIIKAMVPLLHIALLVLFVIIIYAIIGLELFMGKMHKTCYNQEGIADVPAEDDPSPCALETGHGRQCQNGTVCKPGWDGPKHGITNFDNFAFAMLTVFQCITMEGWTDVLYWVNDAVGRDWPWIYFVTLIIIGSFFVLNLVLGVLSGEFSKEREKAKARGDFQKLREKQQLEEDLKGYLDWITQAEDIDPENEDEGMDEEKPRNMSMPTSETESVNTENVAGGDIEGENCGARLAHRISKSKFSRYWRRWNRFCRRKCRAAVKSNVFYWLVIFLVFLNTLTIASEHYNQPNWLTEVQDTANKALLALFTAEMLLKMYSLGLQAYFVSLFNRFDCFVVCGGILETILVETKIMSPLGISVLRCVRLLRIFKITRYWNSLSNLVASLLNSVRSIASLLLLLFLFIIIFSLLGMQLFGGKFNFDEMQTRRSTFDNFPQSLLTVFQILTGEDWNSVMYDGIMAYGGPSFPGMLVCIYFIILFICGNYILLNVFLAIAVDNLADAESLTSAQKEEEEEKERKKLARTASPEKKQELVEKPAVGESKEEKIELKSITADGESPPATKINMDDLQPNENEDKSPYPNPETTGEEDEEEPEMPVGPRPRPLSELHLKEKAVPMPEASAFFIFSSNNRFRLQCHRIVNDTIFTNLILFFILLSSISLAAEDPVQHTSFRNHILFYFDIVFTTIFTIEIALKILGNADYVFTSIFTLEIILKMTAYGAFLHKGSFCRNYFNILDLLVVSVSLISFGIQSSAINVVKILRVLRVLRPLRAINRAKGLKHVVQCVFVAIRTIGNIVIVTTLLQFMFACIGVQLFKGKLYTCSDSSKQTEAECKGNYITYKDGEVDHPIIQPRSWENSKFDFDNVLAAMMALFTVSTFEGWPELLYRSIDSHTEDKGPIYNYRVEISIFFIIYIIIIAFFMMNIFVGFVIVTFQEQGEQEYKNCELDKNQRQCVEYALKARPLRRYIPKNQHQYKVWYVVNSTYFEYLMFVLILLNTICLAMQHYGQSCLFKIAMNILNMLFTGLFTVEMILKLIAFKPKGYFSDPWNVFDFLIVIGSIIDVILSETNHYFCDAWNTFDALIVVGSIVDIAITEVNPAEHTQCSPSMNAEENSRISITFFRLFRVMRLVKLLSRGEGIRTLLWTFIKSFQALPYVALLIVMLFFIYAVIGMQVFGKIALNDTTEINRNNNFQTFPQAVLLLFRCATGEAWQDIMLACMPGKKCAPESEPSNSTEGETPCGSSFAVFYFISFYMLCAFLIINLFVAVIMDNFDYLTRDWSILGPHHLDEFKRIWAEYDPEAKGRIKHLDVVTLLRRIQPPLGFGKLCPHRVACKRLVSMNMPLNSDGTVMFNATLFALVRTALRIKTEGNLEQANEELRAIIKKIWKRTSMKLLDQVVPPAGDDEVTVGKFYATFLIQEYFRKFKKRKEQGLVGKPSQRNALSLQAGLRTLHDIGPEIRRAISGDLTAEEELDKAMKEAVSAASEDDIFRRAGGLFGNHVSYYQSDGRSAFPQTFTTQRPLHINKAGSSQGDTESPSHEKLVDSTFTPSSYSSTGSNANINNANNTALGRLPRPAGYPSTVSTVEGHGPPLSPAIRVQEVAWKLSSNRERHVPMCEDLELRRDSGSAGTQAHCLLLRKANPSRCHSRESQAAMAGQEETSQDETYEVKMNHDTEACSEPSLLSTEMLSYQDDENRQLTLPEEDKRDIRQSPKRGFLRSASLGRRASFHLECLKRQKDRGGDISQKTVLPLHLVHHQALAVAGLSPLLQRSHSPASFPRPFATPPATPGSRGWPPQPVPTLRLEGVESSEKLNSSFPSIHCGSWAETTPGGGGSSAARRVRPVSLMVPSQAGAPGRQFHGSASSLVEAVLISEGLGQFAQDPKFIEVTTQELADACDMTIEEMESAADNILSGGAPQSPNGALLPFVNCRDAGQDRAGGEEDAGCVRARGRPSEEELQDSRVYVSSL

effect of a mutation on the interaction: decreasing interaction
Substance: Voltage-dependent L-type calcium channel subunit beta-2 (Rattus norvegicus (Rat)), Q8VGC3-2 M245A
